For experiment [1], the target named is T1, Apm1-GST (purified full-length Apm1 fused to GST) (S. pombe, UniProt Q9HFE5 1-426).
T1 construct: Apm1, µ1 subunit of the clathrin-associated adaptor protein-1 (AP-1) complex of fission yeast, full length; the methods give no details of the construct or its expression; also called GST-fused Apm1; µ1 subunit of the AP-1 complex; source: purified; not shown: GST, C-terminal, kept
T1 sequence (looked up): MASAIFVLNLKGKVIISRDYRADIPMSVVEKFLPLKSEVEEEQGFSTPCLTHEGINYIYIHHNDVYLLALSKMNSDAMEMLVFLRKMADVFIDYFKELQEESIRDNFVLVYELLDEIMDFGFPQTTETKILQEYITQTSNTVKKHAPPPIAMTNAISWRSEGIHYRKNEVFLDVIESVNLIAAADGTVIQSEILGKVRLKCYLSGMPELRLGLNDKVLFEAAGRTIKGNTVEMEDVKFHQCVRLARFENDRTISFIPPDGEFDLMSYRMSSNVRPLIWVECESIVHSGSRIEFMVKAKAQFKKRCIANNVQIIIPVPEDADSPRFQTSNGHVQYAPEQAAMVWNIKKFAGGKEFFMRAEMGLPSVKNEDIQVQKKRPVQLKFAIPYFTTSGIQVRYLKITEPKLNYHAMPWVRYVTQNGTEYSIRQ
The experiment is described as follows: affinity capillary electrophoresis; GFP-fused Rho3 sample migrating in 50 mM phosphate buffer pH 6.8 containing Apm1-GST at 100 µg/ml (control: GST-Rho3 at 100 µg/ml); 15 kV, 25°C, laser-induced fluorescence detection; migration time-shift = t(control) - t(affinity).

The target in experiment [2] is T1, Apm1-GST (purified full-length Apm1 …). The experiment can be described thus: affinity capillary electrophoresis; GFP-fused Rho3 sample migrating in 50 mM phosphate buffer pH 6.8 containing Apm1-GST at 200 µg/ml (control: GST-Rho3 at 200 µg/ml); 15 kV, 25°C, laser-induced fluorescence detection; migration time-shift = t(control) - t(affinity).

B1: GFP-Rho3 (wild-type Rho3 fused to GFP) (natural protein, S. pombe, UniProt O13928 1-205, looked up)
chain: MSSCFGSKKKPIYRKIVILGDGAAGKTSLLNVFTKGYFPQVYEPTIFENYIHDIFVDGNSIELSLWDTAGQEEYDQLRSLSYSDTHVIMICFAVDSRDSLENVITKWLPEVSSNCPGVKLVLVALKCDLRGADEEQVDHSKIIDYEEGLAAAKKINAVRYLECSAKLNRGVNEAFTEAARVALAAQPRGTKDGADESHGTGCIIA
notes: Rho3, Rho-family small GTPase of S. pombe (SPAC23C4.08); complete open reading frame amplified from genomic DNA, first methionine as in the Sanger Institute database; The name GFP-Rho3 puts GFP at the N-terminus, but the methods say the ORF 'was ligated to the N-terminus of the GFP'; also called GFP-fused Rho3; source: S. pombe cells, overexpressed from the inducible nmt1 promoter, …
B1: the migration time-shift in experiment [1] is 0.45 min; in experiment [2] it was 0.84 min.

B2: GFP-Rho3G22V (GTP-locked variant of Rho3 fused to GFP) (natural protein, S. pombe, UniProt O13928 1-205, looked up)
chain: MSSCFGSKKKPIYRKIVILGDVAAGKTSLLNVFTKGYFPQVYEPTIFENYIHDIFVDGNSIELSLWDTAGQEEYDQLRSLSYSDTHVIMICFAVDSRDSLENVITKWLPEVSSNCPGVKLVLVALKCDLRGADEEQVDHSKIIDYEEGLAAAKKINAVRYLECSAKLNRGVNEAFTEAARVALAAQPRGTKDGADESHGTGCIIA
notes: Rho3 of S. pombe (SPAC23C4.08), complete open reading frame, Gly22 changed to Val by site-directed mutagenesis; also called Rho3GV; GFP-Rho3GV; source: S. pombe cells, overexpressed from the inducible nmt1 promoter, in lysate (pull-down); not shown: GFP (S65T), N-terminal, kept
B2: the migration time-shift was determined as 1.33 min in experiment [1] and 0.94 min in experiment [2].

B3: GFP-Rho3E48V (effector domain mutant of Rho3 fused to GFP) (natural protein, S. pombe, UniProt O13928 1-205, looked up)
chain: MSSCFGSKKKPIYRKIVILGDGAAGKTSLLNVFTKGYFPQVYEPTIFVNYIHDIFVDGNSIELSLWDTAGQEEYDQLRSLSYSDTHVIMICFAVDSRDSLENVITKWLPEVSSNCPGVKLVLVALKCDLRGADEEQVDHSKIIDYEEGLAAAKKINAVRYLECSAKLNRGVNEAFTEAARVALAAQPRGTKDGADESHGTGCIIA
notes: Rho3 of S. pombe (SPAC23C4.08), complete open reading frame, Glu48 changed to Val by site-directed mutagenesis; Analogue of the budding yeast rho3-V51 mutant; also called Rho3EV; GFP-Rho3EV; source: S. pombe cells, overexpressed from the inducible nmt1 promoter, in lysate (pull-down); not shown: GFP (S65T), N-terminal, kept
As to B3, the figures for the migration time-shift in experiment [1] and in experiment [2] were 0.25 min and 0.82 min, respectively.

The record behind these values is publication PMC3033427, “Role of the Small GTPase Rho3 in Golgi/Endosome Trafficking through Functional Interaction with Adaptin in Fission Yeast” (PLoS ONE, 2011).
